The source of these data is patent publication US20070185028A1, “Compositions and methods for treatment of protein misfolding and protein aggregation diseases” (priority 2004, published 2007).

One test deals with T1, γD crystallin (Homo sapiens, UniProt P07320).
T1 sequence (P07320 2-174): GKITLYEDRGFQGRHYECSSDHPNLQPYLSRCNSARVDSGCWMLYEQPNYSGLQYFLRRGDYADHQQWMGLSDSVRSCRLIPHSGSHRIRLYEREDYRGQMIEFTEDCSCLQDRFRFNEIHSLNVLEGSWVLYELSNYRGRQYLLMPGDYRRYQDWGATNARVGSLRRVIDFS
Put plainly: γD crystallin Thioflavin T fluorescence (fibrillization). The test is classed as biochemical. Conditions: 1:1 γD crystallin:peptide; for Δfluorescence (γD crystallin): Thioflavin T, 50° C., 72 hours. As to the method:
γD crystallin Thioflaviin T fluorescence. γD crystallin fibrils were formed in a similar way to that of γ crystalline. Meehan et al., J Biol Chem 279: 3413-3419, 2004. Peptides were dissolved to 9.1 mM in TFE and diluted to 0.91 mM stock solutions in 10% TFE, pH 2.0. 3.5 mg of Thioflavin T was dissolved in 100 μl of 50 mM Glycine pH 8.5. A stock solution of 1 mg/ml (0.22 mM) Aβ was prepared. 20 μl Aβ, 5 μl chaperone, 2 μl Thioflavin T was mixed with 73 μl 10% TFE, pH 2.0. Fluorescence was read using a Beckman Coultier DTX 880 multimode detector. Samples were heated at 50° C. for 72 hours and fluorescence was read again.
The fibrillization of γD crystallin was measured as fluorescence of the fluorescent dye Thioflavin T from solutions containing 1:1 monomeric molar ratio of γD crystallin:peptide. In the absence of fibrils Thioflavin T had little or no fluorescence. The fluorescence of the Thioflavin T bound to γD crystallin fibrils in the absence of any other molecule after 72 hrs was set to 100%. […] Fibril formation=ΔfluorescenceγD crystallin (with chaperone)*100/ΔfluorescenceγD crystallin (without chaperone).

A further test addresses T2, Aβ1-42 (Homo sapiens, UniProt P05067).
T2 construct: Aβ1-42 (American Peptide); purchased American Peptide
Put plainly: Aβ1-42 fibril formation ThT fluorescence assay. Format: biochemical. The conditions noted are these: for decrease in ThT fluorescence of Aβ1-42: 30 μM Aβ1-42, 48 hrs. As to the method:
The effect of five synthesized αB crystallin peptides STSLSPFYLRPPSFLRAP (ST), DRFSVNLDVKHFS (DR), HGKHEERQDE (HG), LTITSSLSSDGV (LT), and ERTIPITRE (ER) on Aβ1-42 fibrillation was measured using the ThT fluorescence assay (FIG. 1). The formation and inhibition of Aβ1-42 fibrils was qualitatively verified by fluorescence and bright-field microscopy. The concentration and stoichometry of the peptides was varied relative to Aβ1-42 to establish a concentration curve. In addition, the effect of two known inhibitors of Aβ1-42 fibrillation (APS and NAP) and a control neuropeptide (AT1) with no fibril inhibition activity was measured and compared to the effect of the αB crystallin peptides on Aβ1-42 fibrillation. The ThT fluorescence of 30 μM Aβ1-42 alone incubated at 37° C. for 48 hrs increased from ˜350,000 to ˜450,000 RFU. […] In contrast, 6 μM DR, LT, and […] had no effect on Aβ1-42 fibril formation. […] Increasing the concentration of the DR peptide to 30 μM decreased the ThT fluorescence by approximately 50%. […] However, when the concentrations of the LT and ER peptides were increased to 150 μM, a 60-100% decrease in ThT fluorescence was measured. […] The negative control peptide AT1 had no effect on Aβ1-42 fibril formation even at a concentration as high as 300 μM.
The Thioflavin T (ThT) fluorescence of Aβ1-42 in the presence of varying concentrations of αB crystallin peptides and controls was measured. […] Addition of 6 μM DR, LT, and ER had no effect on the ThT fluorescence of Aβ1-42. When the concentration of the peptides was increased to 30 μM (1:1::peptide:Aβ1-42), the αB crystallin peptides ST, DR, HG decreased the ThT fluorescence by 50-100%. At the same concentrations, APS and NAP decreased the ThT fluorescence by 30-100%. When the concentration of the peptides was increased further to 150 μM ([…]), four of the five αB crystallin peptides DR, HG, LT, and ER decreased the ThT fluorescence by 58-100%. At the same concentrations, APS and NAP decreased the fluorescence by 28-100%. […] The formation and inhibition of Aβ fibrils was verified microscopically.
Thioflavin T (ThT) Assays. The effect of the five αB crystallin peptides (ST, DR, HG, LT, and ER) on Aβ1-42 fibril formation was measured using the ThT fluorescence assay (44-47) and compared with two known inhibitors of Aβ1-42 fibril formation (Tramiprosate and NAP)(34, 36) and a negative control neuropeptide Angiotensin 1 (AT1). Thioflavin T is a fluorescent dye that has a high affinity for amyloid fibrils and becomes fluorescent (excitation λ=450 nm, emission λ=486 nm) when bound to fibrils. For the Aβ1-42 assays, peptides and APS were dissolved to 2 mM in 0.25% DMSO and diluted accordingly, while Aβ1-42 was dissolved in 20 mM Tris-Cl, pH 7.40, and 100 mM NaCl. For the 5:1::inhibitor:Aβ1-42 assay, 10 μL of 450 μM peptide or APS was mixed with 10 μL of 90 μM Aβ1-42), 7 μL 20 mM Tris-Cl, 100 mM NaCl, pH 7.4 and 3 μL of 1 mM ThT. For the 1:1::inhibitor:Aβ1-42 assay, 10 μL of 90 μM peptide or APS was mixed with 10 μL of 90 μM Aβ(1-42), 7 μL 20 mM Tris-Cl, 100 mM NaCl, pH 7.4 and 3 μL of 1 mM ThT. For the 1:5::inhibitor:Aβ1-42 assay, 10 μL of 18 μM peptide or APS was mixed with 10 μL of 90 μM Aβ(1-42), 7 μL 20 mM Tris-Cl, 100 mM NaCl, pH 7.4 and 3 μL of 1 mM ThT. ThT fluorescence in relative fluorescence units (RFU) was measured using a Perkin Elmer Victor^3 V plate reader. Assays were performed in 384-well fluorescence plates in duplicates or triplicates. Samples were incubated at 37° C. for a total of 48 hours. ThT fluorescence was measured at 0, 24, and 48 hours. The effect of the peptides and APS was calculated as percentage fibril formation relative to Aβ1-42 alone (100%) at the end of 48 hours.

With DRFSVNLDVKHFS, the “Δfluorescence (γD crystallin)” value with γD crystallin is 661,038,176. Further, the “decrease in ThT fluorescence of Aβ1-42” value in the test with Aβ1-42 (6 μM inhibitor, 37° C.) is listed as “no effect”.

ERTIPITRE: the “Δfluorescence (γD crystallin)” value with γD crystallin is recorded as 611,017,728. Moreover, the “decrease in ThT fluorescence of Aβ1-42” value with Aβ1-42 (6 μM inhibitor, 37° C.) is “no effect”; in the test with Aβ1-42 (30 μM inhibitor (1:1)), “no effect”.

On to HGKHEERQDE, for which the “Δfluorescence (γD crystallin)” value with γD crystallin is 734,394,240. In addition, the “effect on Aβ1-42 fibril formation, over all concentrations” value in the test with Aβ1-42 (any concentration) is listed as “most effective inhibitor”.

On to LTITSSLSSDGV, for which the “Δfluorescence (γD crystallin)” value with γD crystallin is 675,352,992. For the same sequence, the “decrease in ThT fluorescence of Aβ1-42” value in the test with Aβ1-42 (6 μM inhibitor, 37° C.) was “no effect”; with Aβ1-42 (30 μM inhibitor (1:1)) it was “no effect”.

For STSLSPFYLRPPSFLRAP, the “effect on the fibrillization of γD crystallin (ranking)” value with γD crystallin (72 hrs) is reported as “strongest effect”. Moreover, the “Δfluorescence (γD crystallin)” value with γD crystallin is recorded as 606,290,176. In addition, the “inhibition of Aβ fibrillation” value with Aβ1-42 (peptide to substrate concentration of 1:5) is recorded as 100%.
